Values of other authors, collected in publication PMC8444577.

Molecular target: IL-18 (Homo sapiens) (UniProt Q14116)
Sequence (Q14116 37-193): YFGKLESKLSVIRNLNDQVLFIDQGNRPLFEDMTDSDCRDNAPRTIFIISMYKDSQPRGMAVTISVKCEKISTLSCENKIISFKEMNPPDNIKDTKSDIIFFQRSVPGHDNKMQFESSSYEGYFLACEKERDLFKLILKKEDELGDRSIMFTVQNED

Chain of IL-18BP (O95998 31-194): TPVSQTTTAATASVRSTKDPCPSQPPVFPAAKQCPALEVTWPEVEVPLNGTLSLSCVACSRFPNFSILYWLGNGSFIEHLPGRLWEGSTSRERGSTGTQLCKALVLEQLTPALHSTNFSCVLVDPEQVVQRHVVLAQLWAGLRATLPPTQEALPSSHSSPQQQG

Substance: IL-18BP (from UniProt O95998)
- Kd: 0.4 nM
